Key:
[1] = SEC; constructs with partial Aes^N fragments fused to MBP, 30 µM each; aggregate and monomer content
[2] = SEC; 1P at an isolated protein concentration of 45 µM; monomer against aggregate
[3] = SEC; Superdex 200 10/300, 4 °C, 0.75 mL/min, assay buffer; protein as isolated; soluble aggregate at the void volume against the monomer
[4] = SEC; analytical SEC at 15 °C after dilution to 10 µM and 24 h at 15 °C in 50 mM Tris, 300 mM NaCl, pH 7; aggregate/monomer ratio from peak areas
[5] = SEC; construct with a partial Aes^N fragment fused to MBP at 150 µM; aggregate content
[6] = SEC; analytical SEC without prior concentration adjustment; cysteine-containing proteins reduced with 0.5 mM TCEP before SEC

13P, MBP fusion of Aes^N aa62-120
aggregated fraction (SEC) [1]: showed a significant aggregated fraction (53%)

MBP-Aes^N-H6 (1P)
monomeric fraction (SEC) [2]: at 45 µM and 135 µM only about 4% and no detectable monomeric species were present
aggregated fraction (SEC) [3]: about 71% of the protein
monomeric fraction (SEC) [3]: about 29%
monomeric fraction (SEC) [4]: 19% measured for the WT (1P)

14P, MBP fusion of Aes^N aa69-120
aggregated fraction (SEC) [5]: 9% at 30 µM and 15% at 150 µM
aggregated fraction (SEC) [1]: 9% at 30 µM and 15% at 150 µM

MBP-Ssp^N-H6 (25P)
aggregated fraction (SEC) [6]: high-molecular weight aggregate fraction (ca. 66%)
monomeric fraction (SEC) [6]: a monomeric fraction (ca. 34%)

GFP-Npu^N-H6 (27P)
monomeric fraction (SEC) [6]: this precursor existed to only 43% as a monomer

— publication PMC11923092
